Test [1] concerns the target T1, Human DLL4 full-length protein on CHO-s cells (human, UniProt Q9NR61 27-685).
T1 construct: also called human DLL4/CHO-s
The test can be described thus: FACS on human DLL4/CHO-s cells. As for the experimental part:
Stably transfected human DLL1/CHO-s and human DLL4/CHO-s cells were suspended at 1×10⁶/mL in FACS buffer (containing 1% BSA and pH 7.4 PBS), and the cell suspensions were added to a 96-well round-bottom plate (Corning, 3795) at 100 µL/well. The plate was centrifuged at 300 g for 5 min, and the supernatant was removed. Test antibodies were added at 100 μL/well, and the plate was incubated in the dark in a refrigerator at 4° C. for 1 h. After 3 washes by centrifugation at 300 g, working concentrations of PE F(ab′)2-goat anti-human IgG Fc secondary antibody (invitrogen, H10104) were added. The plate was incubated in the dark in a refrigerator at 4° C. for 40 min. After 3 washes by centrifugation at 300 g, the geometric mean fluorescence intensity was measured on an Invitrogen flow cytometer.

The target of test [2] is T2, Rat DLL3 full-length protein on CHO-s cells (rat, UniProt O88671 33-589).
T2 construct: also called RatDLL3/CHO-s; ratDLL3/CHO-s
T2 sequence: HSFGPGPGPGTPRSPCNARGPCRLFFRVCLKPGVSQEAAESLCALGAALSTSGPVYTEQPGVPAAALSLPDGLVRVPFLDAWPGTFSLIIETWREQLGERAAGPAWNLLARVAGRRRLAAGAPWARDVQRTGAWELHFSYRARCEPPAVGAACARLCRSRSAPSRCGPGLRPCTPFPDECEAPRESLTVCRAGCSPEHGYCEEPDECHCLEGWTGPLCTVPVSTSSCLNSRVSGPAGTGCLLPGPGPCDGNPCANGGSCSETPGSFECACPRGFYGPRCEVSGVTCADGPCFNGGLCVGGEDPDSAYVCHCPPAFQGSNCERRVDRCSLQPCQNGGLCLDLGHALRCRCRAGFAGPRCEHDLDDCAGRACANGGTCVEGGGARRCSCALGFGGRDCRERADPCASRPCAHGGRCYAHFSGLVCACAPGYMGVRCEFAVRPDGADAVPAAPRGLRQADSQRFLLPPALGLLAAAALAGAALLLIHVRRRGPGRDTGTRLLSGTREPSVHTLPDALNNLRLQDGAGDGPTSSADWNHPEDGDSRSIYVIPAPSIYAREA
The test can be described thus: FACS on RatDLL3/CHO-s cells. As for the experimental part:
Cells of the DLL3-expressing small cell lung cancer cell lines H1184 (ATCC, Cat. No. CRL-5858), DLL3/H82, cynoDLL3/CHO-s, and RatDLL3/CHO-s were suspended at 1×10^6/mL in FACS buffer (1% BSA+pH 7.4 PBS), and the cell suspensions were added to a 96-well round-bottom plate (Corning, 3795) at 100 μL/well. The plate was centrifuged at 300 g for 5 min, and the supernatant was removed. Different concentrations of test antibodies were added at 100 μL/well. The plate was incubated in the dark in a refrigerator at 4° C. for 1 h. After 3 washes by centrifugation at 300 g, working concentrations of APC anti-human IgG Fc (BioLegend, 410712) or PE F(ab′)2-goat anti-human IgG (invitrogen, H10104) were added. The plate was incubated in the dark in a refrigerator at 4° C. for 40 min. After 3 washes by centrifugation at 300 g, the geometric mean fluorescence intensity was measured on an Invitrogen flow cytometer, and the EC50 values of the antibodies in binding to DLL3-expressing cells were calculated.

Test [3] has as its target T3, human DLL3 (ACRO, DLL3-H52H4) (human, UniProt Q9NYJ7 27-479).
T3 construct: bought antigen of the Biacore assay; construct not described
T3 sequence (looked up): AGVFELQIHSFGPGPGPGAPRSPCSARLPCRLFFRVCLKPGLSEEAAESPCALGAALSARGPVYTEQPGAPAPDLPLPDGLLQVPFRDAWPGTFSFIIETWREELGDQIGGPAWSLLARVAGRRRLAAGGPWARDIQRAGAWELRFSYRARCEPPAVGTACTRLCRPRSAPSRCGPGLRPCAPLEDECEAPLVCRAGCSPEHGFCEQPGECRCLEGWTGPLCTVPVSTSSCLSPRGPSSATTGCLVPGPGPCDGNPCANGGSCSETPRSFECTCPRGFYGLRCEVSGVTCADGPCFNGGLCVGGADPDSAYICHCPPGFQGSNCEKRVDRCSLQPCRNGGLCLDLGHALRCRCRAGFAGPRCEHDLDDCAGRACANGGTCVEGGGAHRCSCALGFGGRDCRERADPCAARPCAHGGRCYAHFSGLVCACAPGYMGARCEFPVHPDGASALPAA
The test can be described thus: SPR (Biacore 8K), antibody captured on Protein A chip, 1:1 fit. The source says:
Test antibodies were affinity-captured with a Protein A biosensor chip (Cat. #29127556, Cytiva) for 18 seconds, and then the antigens human DLL3 (ACRO, DLL3-H52H4), cynomolgus monkey DLL3 (KACTUS, DLL-RM103), and mouse DLL3 (KACTUS, DLL-MM103) were allowed to flow over the surface of the chip for 180 seconds, followed by 600 seconds of dissociation. Reaction signals were detected in real time using a Biacore 8K (Cytiva) instrument to obtain association and dissociation curves. After the dissociation in each experimental cycle, the biosensor chip was washed and regenerated with a 10 mM glycine-hydrochloric acid solution (pH 1.5) (Cat. #BR-1003-54, Cytiva). A 1:1 model was fit to the data. The results are shown in Table 12-1, Table 12-2, and Table 12-3.
Background: Surface plasmon resonance follows binding to a sensor surface in real time, without labels.

T1 sequence (Q9NR61 27-685 limits assumed): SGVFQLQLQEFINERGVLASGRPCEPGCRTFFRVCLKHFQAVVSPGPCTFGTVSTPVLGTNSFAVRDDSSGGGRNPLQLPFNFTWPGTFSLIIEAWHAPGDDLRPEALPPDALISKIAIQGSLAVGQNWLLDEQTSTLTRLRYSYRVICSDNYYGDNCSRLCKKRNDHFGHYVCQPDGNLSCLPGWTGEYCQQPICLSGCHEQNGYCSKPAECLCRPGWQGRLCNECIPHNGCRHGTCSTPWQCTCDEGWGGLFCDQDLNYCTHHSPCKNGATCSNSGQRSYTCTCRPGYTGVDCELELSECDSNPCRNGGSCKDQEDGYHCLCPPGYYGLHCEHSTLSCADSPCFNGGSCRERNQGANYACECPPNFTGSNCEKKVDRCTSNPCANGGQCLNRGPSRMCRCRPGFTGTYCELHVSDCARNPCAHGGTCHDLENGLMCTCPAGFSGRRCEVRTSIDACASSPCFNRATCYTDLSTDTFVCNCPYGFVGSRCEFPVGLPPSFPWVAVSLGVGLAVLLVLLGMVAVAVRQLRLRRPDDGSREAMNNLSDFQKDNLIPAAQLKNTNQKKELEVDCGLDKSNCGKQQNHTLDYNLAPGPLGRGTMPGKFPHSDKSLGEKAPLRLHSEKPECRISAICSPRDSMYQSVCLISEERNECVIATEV

B1: Hu100 (antibody, human IgG1, kappa, V domains shown)
VH: EVQLVESGGGLVKPGGSLRLSCAASGFTFSDSGMHWIRQAPGKGLEWVSYISSGSSTIHYADTVKGRFTISRDNAKNSLYLQMNSLRAEDTAVYYCASPLYYYGRSYNAVAYWGQGTTVTVSS
VL: DIQMTQSPSSLSASVGDRVTITCHASQNINVWLSWYQQKPGKVPKLLIYKASDLHTGVPSRFSGSGSGTDFTLTISSLQPEDVATYYCQQGQSYPLTFGGGTKVEIKR
notes: also called hAb100L1H1
As usually defined, the Kd is the concentration at which binding is half-saturated. Take B1: the binding result in test [1] and in test [2] was “no binding” in each case. The dissociation constant (Kd) in test [3] turned out to be 0.471 nM.

B2: Hu6 (antibody, human IgG1, kappa, V domains shown)
VH: EVQLVQSGSELKKPGASVKVSCKASGYTFTDYYMNWVRQAPGQGLEWMGIINPYSGVTIYNHKFKGRFALSVDKSSNTAYLQISSLKAEDTAVYYCARQDSLLDYAMDYWGQGTTVTVSS
VL: DIQMTQSPSSLSASVGDRVTITCHASQGISGNMGWLQQKPGKAPKGLIYHGANLEDGVPSRFSGSGSGADYTLTISSLQPEDFADYYCVQYAQFPYTFGGGTKVEIKR
notes: also called hAb6L4H12
For orientation: EC50 means the concentration needed to bring the measured effect to its halfway point. Higher therefore signals lower potency in that assay. Consider B2, for which the binding result in test [1] is recorded as “no binding”. This molecule displayed an EC50 in test [2] of 1.42 nM. In test [3], the Kd was 0.594 nM.

The record behind these values is US20250057968A1, “ANTI-DLL3 ANTIBODY AND PHARMACEUTICAL USE THEREOF, AND ANTIBODY-DRUG CONJUGATE CONTAINING ANTI-DLL3 ANTIBODY” (Jiangsu Hengrui Pharmaceuticals Co., Ltd., priority 2021, published 2025).
